Measured values from patent US20030021779A1.

Target: C-antigen (human)
Experiment: cell-fixed ELISA, tumor cell lines

B1: H11-scFv (scFv)
scFv: DIVLTQSPGTLSLSPGERATLSCRASQSVSSSYLAWYQQKPGQAPRLLIYGASTRATGMPDRFSGSGSGTDFTLTISRLEPEDFAVYYCQQYGSSPQTPQITFGGGTKVEIKRTVAAPSVSGGGGSGGGGSGGGGSQVQLVESGGGVVQPGRSLRLSCAASGFPFRSFAMHWVRQALGKGLEWVAVISYDGSTKYYADSVKGRFTISRDTSKNTVYLKMNSLRTEDTAVYYCARDQSLLGDYDHYYGLDVWGKGTTVTVSSGSEQKLISEEDLNHHHHH
fold greater affinity than the control (BGA scFv): 8 to 50 fold
